The values below come from paper PMC3121797.

In the assay the target is unliganded V1/V2 loop-deleted envelope glycoproteins. Nature of the assay: ELISA. (In general: ELISA stands for enzyme-linked immunosorbent assay.)

Several values for one entry are separate records, joined by “and”; a condition that tells them apart may be missing. Equal values may be shown once.

As for “C34-Ig fusion protein (from UniProt P04578 628-661) (Fc fusion)”, the C34-Ig binding without sCD4 as percent of that with sCD4 is 20% and 45%.
